This note sets out measurements from PMC4353338, “Molecular annotation of ketol-acid reductoisomerases from Streptomyces reveals a novel amino acid biosynthesis interlock mediated by enzyme promiscuity” (Microbial Biotechnology, 2014).

Numbering of substitutions follows the chain as printed.

Holding throughout (test): purified protein
Holding throughout (conditions): 0.1 M Tris-HCl pH 8, 10 mM MgCl2, 0.22 mM NADP(H), 25 C

Substrate in series [1]: CC(C)(O)C(=O)C(=O)O
The format is biochemical, Streptomyces viridifaciens.

Substrate in series [2]: CC(=O)[C@](C)(O)C(=O)O
It counts as biochemical, Streptomyces viridifaciens.

Substrate in series [3]: CC(C)(O)C(=O)C(=O)O
It counts as biochemical, Corynebacterium glutamicum.

Substrate in series [4]: CC(C)(O)C(=O)C(=O)O
It counts as biochemical, Streptomyces coelicolor.

Substrate in series [5]: CC(=O)[C@](C)(O)C(=O)O
The format is biochemical, Streptomyces coelicolor.

Substrate in series [6]: CC(C)(O)C(=O)C(=O)O
The format is biochemical, Streptomyces ambofaciens.

Substrate in series [7]: CC(=O)[C@](C)(O)C(=O)O
The format is biochemical, Streptomyces ambofaciens.

Substrate in series [8]: CC(C)(O)C(=O)C(=O)O
The format is biochemical, Streptomyces lividans.

Substrate in series [9]: CC(=O)[C@](C)(O)C(=O)O
It counts as biochemical, Streptomyces lividans.

Substrate in series [10]: CC[C@](O)(C(C)=O)C(=O)O
The format is biochemical, Streptomyces avermitilis.

Substrate in series [11]: CC(=O)[C@](C)(O)C(=O)O
It counts as biochemical, Streptomyces avermitilis.

Substrate in series [12]: CC(C)(O)C(=O)C(=O)O
It counts as biochemical, Streptomyces pristinaespiralis.

Substrate in series [13]: CC(=O)[C@](C)(O)C(=O)O
The format is biochemical, Streptomyces pristinaespiralis.

Substrate in series [14]: CC[C@](O)(C(C)=O)C(=O)O
It counts as biochemical, Streptomyces griseus.

Substrate in series [15]: CC(=O)[C@](C)(O)C(=O)O
It counts as biochemical, Streptomyces griseus.

Substrate in series [16]: CC(C)(O)C(=O)C(=O)O
The format is biochemical, Escherichia coli.

B1: Svi2 (Streptomyces viridifaciens) (protein)
chain: MAELFYDADADLSIIQGRKVAVIGYGSQGHAHALSLRDSGVDVRVGLHEGSKSKAKAEEQGLRVVTPAEAAAEADVIMILVPDPIQAQVYEESVKDNLKDGDALFFGHGFNIRFGFIKPPAGVDVCMVAPKGPGHLVRRQYEEGRGVPCIAAVEQDASGNAFALALSYAKGIGGTRAGVIKTTFTEETETDLFGEQAVLCGGTSALVKAGFETLVEAGYQPEIAYFECLHELKLIVDLMYEGGLEKMRWSVSETAEWGDYVTGPRIITDATKAEMKKVLAEIQDGTFAKNWMDEYHGGLKKYDDYKEQDSEHLLETTGKQLRKLMSWVNEETM
notes: commercially synthesized gene; pET28a, expressed in E. coli BL21 Star (DE3), Ni-NTA purified (His-tagged)
Regarding B1, in “purified protein [1]”, the Michaelis-Menten constant (Km) came to 5000 ± 4800 µM and the kcat was 2.5 ± 0.3 s⁻¹. In the series “purified protein [2]”, the Km turned out to be 1800 ± 900 µM and the turnover number (kcat) amounted to 2 ± 0.07 s⁻¹.

B2: Cgl (Corynebacterium glutamicum ATCC 13032) (protein)
chain: MAIELLYDADADLSLIQGRKVAIVGYGSQGHAHSQNLRDSGVEVVIGLREGSKSAEKAKEAGFEVKTTAEAAAWADVIMLLAPDTSQAEIFTNDIEPNLNAGDALLFGHGLNIHFDLIKPADDIIVGMVAPKGPGHLVRRQFVDGKGVPCLIAVDQDPTGTAQALTLSYAAAIGGARAGVIPTTFEAETVTDLFGEQAVLCGGTEELVKVGFEVLTEAGYEPEMAYFEVLHELKLIVDLMFEGGISNMNYSVSDTAEFGGYLSGPRVIDADTKSRMKDILTDIQDGTFTKRLIANVENGNTELEGLRASYNNHPIEETGAKLRDLMSWVKVDARAETA
notes: pET28a, expressed in E. coli BL21 Star (DE3), Ni-NTA purified (His-tagged)
With B2, in “purified protein [3]”, the Km was 2300 ± 250 µM and the kcat was determined as 0.9 ± 0.08 s⁻¹.

B3: Sco1 (Streptomyces coelicolor A3(2)) (protein)
chain: MAELFYDADADLSIIQGRKVAVIGYGSQGHAHALSLRDSGVDVRVGLHEGSKSKAKAEEQGLRVVPVAEAAAEADVIMILVPDPIQAEVYEKDIKDNLKDGDALFFGHGLNIRYGFIKPPAGVDVCMVAPKGPGHLVRRQYEEGRGVPCIAAVEQDATGNAFALALSYAKGIGGTRAGVIKTTFTEETETDLFGEQAVLCGGTAALVKAGFETLTEAGYQPEIAYFECLHELKLIVDLMYEGGLEKMRWSISETAEWGDYVTGPRIITDATKAEMKKVLAEIQDGTFAKNWMDEYHGGLKKYNEYKKQDSEHLLETTGKELRKLMSWVDEEA
notes: as for B2
For B3, the Km in “purified protein [4]” was 3000 ± 200 µM; in “purified protein [5]” it was 1600 ± 200 µM. The turnover number (kcat) in the series “purified protein [4]” was 2.2 ± 0.15 s⁻¹; in the series “purified protein [5]”, 1.1 ± 0.2 s⁻¹.

B4: Sco2 (Streptomyces coelicolor A3(2)) (protein)
chain: B3 chain with I117V, I150L, A151V, K181R, C200A, T203V, A204T, A270V, K276R
notes: as for B2
Turning to B4, the results for the Km in the series “purified protein [4]” and in the series “purified protein [5]” were 10000 ± 110 µM and 12000 ± 800 µM, respectively. In addition, the values for the kcat in the series “purified protein [4]” and in “purified protein [5]” were 0.3 ± 0.04 s⁻¹ and 0.24 ± 0.01 s⁻¹, respectively.

B5: Sam (Streptomyces ambofaciens) (protein)
chain: B3 chain with P66S, V67P, A68S, E88Q, K92E, D93H, Y114F, T158S, K307Q, E320Q
notes: as for B2
B5: in “purified protein [6]”, the Michaelis-Menten constant (Km) is 4000 ± 300 µM and the turnover number (kcat) came to 0.8 ± 0.1 s⁻¹. Also, in “purified protein [7]”, the Michaelis constant (Km) was determined as 2000 ± 150 µM and the kcat was found to be 0.63 ± 0.5 s⁻¹.

B6: Sli1 (Streptomyces lividans TK24) (protein)
chain: B3 chain
notes: as for B2
B6: in “purified protein [8]”, the Km is 4000 ± 500 µM and the kcat worked out at 2.8 ± 0.3 s⁻¹. Moreover, in “purified protein [9]”, the Km was 1200 ± 70 µM and the catalytic constant (kcat) was determined as 0.7 ± 0.59 s⁻¹.

B7: Sav (Streptomyces avermitilis MA-4680 = NBRC 14893) (protein)
chain: MAELFYDADADLSIIQGRKVAVIGYGSQGHAHALSLRDSGVDVRVGLHEGSKSKAKAEEQGLRVVTPSEAAAEADVIMILVPDPIQAQVYEESIKDNLKDGDALFFGHGLNIRFGFIKPPAGVDVCMVAPKGPGHLVRRQYEEGRGVPCIAAVEQDATGNGFALALSYAKGIGGTRAGVIKTTFTEETETDLFGEQAVLCGGTAALVKAGFETLTEAGYQPEIAYFECLHELKLIVDLMYEGGLEKMRWSISETAEWGDYVTGPRIITDATKAEMKKVLAEIQDGTFAQAWMDEYHGGLKKYNEYKTQDENHLLETTGKELRKLMSWVNDEEA
notes: as for B2
On to B7, for which the Km in the series “purified protein [10]” came to 2600 ± 300 µM; in “purified protein [11]”, 800 ± 90 µM. Also, the values for the kcat in “purified protein [10]” and in the series “purified protein [11]” were 0.4 ± 0.04 s⁻¹ and 0.24 ± 0.2 s⁻¹, respectively.

B8: Spr (Streptomyces pristinaespiralis ATCC 25486) (protein)
chain: MAELFYDDDADLSIIQNRKVAVIGYGSQGHAHALSLRDSGVDVRVGLHEGSKSKAKAEEQGLRVVTPAEAAAEADVIMILIPDPIQAQVYEESVKGNLKDGDALFFAHGFNVRFGFIKAPAGVDVALVAPKGPGHLVRRQYEEGRGVPAIAAVEQDATGNAFALALSYAKAIGGTRAGVIKTTFTEETETDLFGEQAVLCGGASALVKAGFETLTEAGYQPEIAYFECLHELKLIVDLMYEGGLEKMRWSVSETAEWGDYITGPRIITDQTKAEMKKVLAEIQDGTFAKNWMDEYHGGLKKYDEYKTQDSEHLLETTGKELRKLMSWVDNDEA
notes: as for B2
In the case of B8, in the series “purified protein [12]”, the Michaelis-Menten constant (Km) worked out at 8600 ± 900 µM and the catalytic constant (kcat) is 5.2 ± 0.6 s⁻¹. In addition, in “purified protein [13]”, the Km was found to be 9000 ± 700 µM and the kcat was 3.6 ± 0.3 s⁻¹.

B9: Sgr (Streptomyces griseus subsp. griseus NBRC 13350) (protein)
chain: MAELFYDDDADLSIIQGRKVAVLGYGSQGHAHALSLRDSGVDVRVGLHEGSKSKAKAEEQGLRVVTPSEAAAEADVIMILVPDPIQAQVYEESVKDNLKDGDALFFGHGLNIRFGFIKPPAGVDVCMVAPKGPGHLVRRQYEEGRGVPCIVAVEQDASGKGLELALSYAKGIGGTRAGVIKTTFTEETETDLFGEQAVLCGGTAALVKAGFETLTEAGYQPEIAYFECLHELKLIVDLMYEGGLEKMRWSISETAEWGDYVTGPRIITDATKAEMKKVLAEIQDGTFAKNWMAEYHNGLPKYNEYKKADSDHLLETTGRELRKLMSWVNDEEA
notes: as for B2
Regarding B9, the values for the Km in the series “purified protein [14]” and in the series “purified protein [15]” were 2500 ± 300 µM and 1200 ± 700 µM, respectively. Also, the kcat was 0.44 ± 0.03 s⁻¹ in “purified protein [14]” and 0.42 ± 0.04 s⁻¹ in the series “purified protein [15]”.

B10: Eco (Escherichia coli K-12) (protein)
chain: ANYFNTLNLRQQLAQLGKCRFMGRDEFADGASYLQGKKVVIVGCGAQGLNQGLNMRDSGLDISYALRKEAIAEKRASWRKATENGFKVGTYEELIPQADLVINLTPDKQHSDVVRTVQPLMKDGAALGYSHGFNIVEVGEQIRKDITVVMVAPKCPGTEVREEYKRGFGVPTLIAVHPENDPKGEGMAIAKAWAAATGGHRAGVLESSFVAEVKSDLMGEQTILCGMLQAGSLLCFDKLVEEGTDPAYAEKLIQFGWETITEALKQGGITLMMDRLSNPAKLRAYALSEQLKEIMAPLFQKHMDDIISGEFSSGMMADWANDDKKLLTWREETGKTAFETAPQYEGKIGEQEYFDKGVLMIAMVKAGVELAFETMVDSGIIEESAYYESLHELPLIANTIARKRLYEMNVVISDTAEYGNYLFSYACVPLLKPFMAELQPGDLGKAIPEGAVDNGQLRDVNEAIRSHAIEQVGKKLRGYMTDMKRIAVAG
notes: as for B2
B10: in the series “purified protein [16]”, the Km was 260 ± 30 µM and the turnover number (kcat) was found to be 3.1 ± 0.25 s⁻¹.
